For orientation: IC50 means the concentration that inhibits the measured activity by half. Read a high IC50 as weaker potency in that assay. The EC50 is the concentration needed to bring the measured effect to its halfway point. Read a high EC50 as a need for much substance.

The values below come from patent US20180147281A1 (Astellas, published 2018).

The target in assay [1] is T1, human NGF (R&D Systems, 256-GF-100/CF) (human, UniProt P01138 122-241, in the competitive ELISAs biotinylated with EZ-Link NHS-PEG4-Biotin (sites not given); unlabelled when immobilized in the binding ELISA).
T1 construct: Commercial recombinant protein; also called biotinylated human NGF; nerve growth factor
Put plainly: human NGF-trkA competitive ELISA, IC50 after against before incubation. Background: In an ELISA, binding on a coated surface is turned into a signal by an enzyme label.

The target of assay [2] is T1, human NGF (R&D Systems, 256-GF-100/CF). The assay can be described thus: human NGF-trkA competitive ELISA, trkA immobilized, biotinylated human NGF; geometric average of two runs.
Assay [3] shares this target. The assay can be described thus: human NGF-trkA competitive ELISA after incubation of the antibody 14 days at pH 6 and 50 C; geometric average of two runs.
Assay [4] has the same target. The assay can be described thus: human NGF-trkA competitive ELISA; geometric average of three tests.
The target is the same in assay [5]. Put plainly: ELISA, human NGF immobilized, detection with biotinylated anti-human kappa light-chain antibody; geometric average of two runs.

B1: fully human anti-human NGF antibody 1-15 (N52D-A)-Fab' fragment (Fab, V domains shown)
VH: QVQLQQWGAGLLKPSETLSLTCAVYGGSFSGYYWSWVRQPPGKGLEWIGEIDHSGSTNNNPSLKSRVTISVGTSKNQFSLKLSSVTAADTAVYYCSRDGGPESGMGAFDIWGQGTMVTVSS
VL: not shown
Regarding B1, in assay [1], the “increase rate of the IC50 value after incubation for 14 days at 50 C relative to that before the incubation” value is 59%. The IC50 in assay [2] was 0.3 µg/mL; in assay [3], 0.47 µg/mL.

B2: Tanezumab (antibody, V domains shown)
VH: QVQLQESGPGLVKPSETLSLTCTVSGFSLIGYDLNWIRQPPGKGLEWIGIIWGDGTTDYNSAVKSRVTISKDTSKNQFSLKLSSVTAADTAVYYCARGGYWYATSYYFDYWGQGTLVTVSS
VL: DIQMTQSPSSLSASVGDRVTITCRASQSISNNLNWYQQKPGKAPKLLIYYTSRFHSGVPSRFSGSGSGTDFTFTISSLQPEDIATYYCQQEHTLPYTFGQGTKLEIKR
Regarding B2, the half-inhibitory concentration (IC50) in assay [4] was found to be 0.86 µg/mL. The same molecule came in with an EC50 in assay [5] of 0.146 µg/mL.
